Measurements as given in publication PMC9931449.

B1: N3 WT duplex (dsDNA)
DNA 1: TTGGGCGGGGCCTGGGCGGGGCC
DNA 2: GGCCCCGCCCAGGCCCCGCCCAA

Legend:
Experiment in all cases: fluorescence anisotropy
APE1 WT = APE1 WT (Homo sapiens, UniProt P27695 1-318)
APE1 C65S = APE1 C65S (Homo sapiens, UniProt P27695 1-318, C65S)
APE1 C310S = APE1 C310S (Homo sapiens, UniProt P27695 1-318, C310S)
Chain of APE1 C310S (P27695 whole entry C310S): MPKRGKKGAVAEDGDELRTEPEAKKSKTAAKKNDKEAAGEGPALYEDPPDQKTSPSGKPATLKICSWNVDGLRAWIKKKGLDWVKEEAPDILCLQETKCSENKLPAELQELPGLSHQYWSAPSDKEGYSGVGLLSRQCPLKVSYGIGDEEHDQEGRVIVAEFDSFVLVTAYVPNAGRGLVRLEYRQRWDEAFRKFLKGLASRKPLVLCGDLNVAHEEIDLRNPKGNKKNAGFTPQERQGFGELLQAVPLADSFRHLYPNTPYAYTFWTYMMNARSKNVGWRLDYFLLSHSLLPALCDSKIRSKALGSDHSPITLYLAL

Chain of APE1 C65S (P27695 whole entry C65S): as the sequence (P27695 whole entry C310S) above, with C65S, S310C counted along it
Chain of APE1 WT (P27695 whole entry): as the sequence (P27695 whole entry C310S) above, with S310C counted along it

| Binder | binding result (APE1 WT) | binding result (APE1 C65S) | binding result (APE1 C310S) |
| --- | --- | --- | --- |
| B1 | no binding |  |  |
| TTGGGCGGGGCCTGGGCGGGGCC (structured_DNA) [N3-4 G4] |  | binds | binds |
| TAGGGTGCTGTTTGGGCGGGGCCTGGGCGGGGCC (structured_DNA) [N3-5 G4] |  | binds | binds |
